# Measured values as given in patent US20260137795A1 (IMMUNOME, published 2026).
# B1: ATX-P-875 (antibody, human IgG1, kappa, V domains shown)
# VH: not shown
# VL: DIQMTQSPSSLSASVGDRVTITCRASQSISSYLNWYQQKPGKAPKLLIYAASSLQSGVPSRFSGSGSGTDFTLTISSLQPEDFATYYCQQYDNLPITFGQGTRLEIKR
# notes: human IgG1 heavy chain and kappa light chain
# B2: 4A5 (antibody, V domains shown)
# VH: EVKLVESGGGLVKPGGSLKLSCAASGFTFSSYAMSWVRQIPEKRLEWVASISRGGTTYYPDSVKGRFTISRDNVRNILYLQMSSLRSEDTAMYYCGRYDYDGYYAMDYWGQGTSVTVSS
# VL: DIKMTQSPSSMYASLGERVTITCKASPDINSYLSWFQQKPGKSPKTLIYRANRLVDGVPSRFSGGGSGQDYSLTINSLEYEDMGIYYCLQYDEFPYTFGGGTKLEMK
# B3: UC961 (ATX-P-453) (antibody, V domains shown)
# VH: QVQLQESGPGLVKPSQTLSLTCTVSGYAFTAYNIHWVRQAPGQGLEWMGSFDPYDGGSSYNQKFKDRLTISKDTSKNQVVLTMTNMDPVDTATYYCARGWYYFDYWGHGTLVTVSS
# VL: DIVMTQTPLSLPVTPGEPASISCRASKSISKYLAWYQQKPGQAPRLLIYSGSTLQSGIPPRFSGSGYGTDFTLTINNIESEDAAYYFCQQHDESPYTFGEGTKVEIK
# B4: ATX-P-885 (antibody, human IgG1, kappa, V domains shown)
# VH: QVQLQQWGAGLLKPSETLSLTCAVYGGSFSGYYWSWIRQPPGKGLEWIGEINHSGSTNYNPSLKSRVTISVDTSKNQFSLKLSSVTAADTAVYYCAREGVYEDYWGQGTLVTVSS
# VL: EIVLTQSPATLSLSPGERATLSCRASQSVSNYLAWYQQKPGQAPRLLIYDAYNRATGIPARFSGSGSGTDFTLTISSLEPEDFAVYYCQQRSNWPLTFGQGTRLEIKR
# notes: as for B1
# Columns and labels:
# [1] = biological target: T1, human ROR-1 endogenously expressed on JeKo-1 and MDA-MB-468 cells (human, UniProt Q01973 30-937); assay: flow cytometry on MDA-MB-468 cells, titrated antibody detected with a labeled secondary antibody, % Top MFI (cellular binning with 4A5-PE)
# T1 construct: whole, on cells; also called ROR-1 receptor; extracellular ROR-1 protein on cell lines
# [2] = biological target: T1, human ROR-1 endogenously expressed on …; assay: cell-based or functional assay
# [3] = biological target: T1, human ROR-1 endogenously expressed on …; assay: flow cytometry on MDA-MB-468 cells, titrated antibody detected with a labeled secondary antibody, % Top MFI (cellular binning with Dy650-UC961)
# [4] = biological target: T1, human ROR-1 endogenously expressed on …; assay: cell binding saturation assay, flow cytometry on ROR-1 positive cells; one value told for the group
# [5] = biological target: T1, human ROR-1 endogenously expressed on …; assay: competition on MDA-MB-468 cells by flow cytometry: ATX-P-875 titrated first, then a saturating dose of labeled 4A5 (4A5-PE) as the competed antibody
# [6] = biological target: T2, Hu/Cy/Rh ROR1 - His (human/cynomolgus/rhesus, UniProt Q01973 30-403, limits assumed); assay: SPR (Carterra), head 'Kinetics (KD)' of the binning table; the sheet prints no unit, the four other KD values of the same head equal the KD (M) of Table 1 on Hu/Cy/Rh ROR1-His
# T2 construct: Purified His-tagged protein; also called HUMAN/CYNO/RHESUS ROR-1; not shown: His tag
# [7] = biological target: T2, Hu/Cy/Rh ROR1 - His; assay: SPR, purified Hu/Cy/Rh ROR1-His
# [8] = biological target: T1, human ROR-1 endogenously expressed on …; assay: flow cytometry, titration on ROR-1 positive JeKo-1 cells, secondary antibody staining, Net MFI
# [9] = biological target: T1, human ROR-1 endogenously expressed on …; assay: competition on MDA-MB-468 cells by flow cytometry: ATX-P-885 titrated first, then a saturating dose of labeled UC961 (Dy650-UC961) as the competed antibody
# [10] = biological target: T3, Mouse ROR1 - His (mouse, UniProt Q9Z139 30-403, limits assumed); assay: SPR, purified Mouse ROR1-His
# T3 construct: Purified His-tagged protein; not shown: His tag
# T3 sequence (Q9Z139 30-403 limits assumed): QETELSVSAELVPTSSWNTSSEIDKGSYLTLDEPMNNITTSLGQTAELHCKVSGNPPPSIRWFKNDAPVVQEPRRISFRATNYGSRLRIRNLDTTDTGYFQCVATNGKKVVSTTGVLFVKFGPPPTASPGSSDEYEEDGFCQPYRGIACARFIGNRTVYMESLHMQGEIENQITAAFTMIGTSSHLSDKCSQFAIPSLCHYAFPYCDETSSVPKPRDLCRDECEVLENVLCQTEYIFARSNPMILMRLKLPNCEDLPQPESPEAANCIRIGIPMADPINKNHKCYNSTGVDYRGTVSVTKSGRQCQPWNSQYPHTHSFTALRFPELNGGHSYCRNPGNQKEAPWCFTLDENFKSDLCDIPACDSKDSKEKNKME
Binder,EC50 (read off the curve) [1] [nM],"Cellular Internalization, JeKo-1 (%) [2] [%]","Cellular Internalization, MDA-MB-468(%) [2] [%]",EC50 (read off the curve) [3] [nM],saturating concentration [4] [nM],IC50 (read off the curve) [5] [nM],Kd [6] [nM],Kd [7] [nM],koff [7] [s⁻¹],kon [7] [M⁻¹ s⁻¹],EC50 (read off the curve) [8] [nM],IC50 (read off the curve) [9] [nM],Kd [10] [nM],koff [10] [s⁻¹],kon [10] [M⁻¹ s⁻¹]
B1,~0.6,75,89,~0.9,74,~0.7,,,,,,,,,
B2,,,,,,,2.81,,,,,,,,
B3,,75,80,,,,,4.69,0.00591,1.26e+06,,,,,
B4,~2,75,89,~3,74,,,10.9,0.00295,270000,~0.3,~3,45.3,0.00132,29200
